Three molecules from patent US7838249 (BOARD OF REGENTS OF THE UNIVERSITY OF OKLAHOMA, dated 2010) can be followed below.

For experiment [1], the target named is TrkA (high-affinity NGF receptor), expressed in PC12 cells from pBI/TrkA. Briefly: cell-based or functional assay.
For the next experiment, the target named is T1, GST-Rabex-5(135-399) (Bos taurus, UniProt O18973 135-399).
T1 construct: Immobilized on glutathione Sepharose-4B; also called the GEF domain itself
Put plainly: GST pull-down, SDS-PAGE, Coomassie staining. The procedure:
The final concentration of each protein was <2 μM for detection of specific binding. The resins were subsequently washed three times with phosphate-buffered saline (PBS) and resuspended in 20 μl of SDS sample buffer. The samples were subjected to 20% SDS-PAGE analysis, and the proteins were visualized by Coomassie brilliant blue staining.
The bound proteins were analyzed by SDS-PAGE and visualized by Coomassie blue staining. […] Molecular mass standards (in kilodaltons) are indicated on the left of the panel.

T1 sequence (O18973 other isoform, or with tags, fused parts or gaps limits assumed): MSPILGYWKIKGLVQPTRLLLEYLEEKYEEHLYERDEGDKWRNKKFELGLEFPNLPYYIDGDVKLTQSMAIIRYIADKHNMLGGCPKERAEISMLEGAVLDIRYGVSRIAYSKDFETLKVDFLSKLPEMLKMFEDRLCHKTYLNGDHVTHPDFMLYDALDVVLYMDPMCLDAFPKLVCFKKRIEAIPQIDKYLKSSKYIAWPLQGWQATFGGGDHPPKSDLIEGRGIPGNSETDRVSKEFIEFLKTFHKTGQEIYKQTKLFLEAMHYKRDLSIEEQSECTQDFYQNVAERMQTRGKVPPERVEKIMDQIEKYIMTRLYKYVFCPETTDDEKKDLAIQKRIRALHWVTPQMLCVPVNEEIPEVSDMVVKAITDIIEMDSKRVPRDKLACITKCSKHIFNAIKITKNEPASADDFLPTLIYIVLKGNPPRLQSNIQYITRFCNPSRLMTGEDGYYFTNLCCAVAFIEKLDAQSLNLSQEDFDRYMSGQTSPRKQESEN
Chain of TrkA (high-affinity NGF receptor), expressed in PC12 cells from pBI/TrkA (P35739 33-799): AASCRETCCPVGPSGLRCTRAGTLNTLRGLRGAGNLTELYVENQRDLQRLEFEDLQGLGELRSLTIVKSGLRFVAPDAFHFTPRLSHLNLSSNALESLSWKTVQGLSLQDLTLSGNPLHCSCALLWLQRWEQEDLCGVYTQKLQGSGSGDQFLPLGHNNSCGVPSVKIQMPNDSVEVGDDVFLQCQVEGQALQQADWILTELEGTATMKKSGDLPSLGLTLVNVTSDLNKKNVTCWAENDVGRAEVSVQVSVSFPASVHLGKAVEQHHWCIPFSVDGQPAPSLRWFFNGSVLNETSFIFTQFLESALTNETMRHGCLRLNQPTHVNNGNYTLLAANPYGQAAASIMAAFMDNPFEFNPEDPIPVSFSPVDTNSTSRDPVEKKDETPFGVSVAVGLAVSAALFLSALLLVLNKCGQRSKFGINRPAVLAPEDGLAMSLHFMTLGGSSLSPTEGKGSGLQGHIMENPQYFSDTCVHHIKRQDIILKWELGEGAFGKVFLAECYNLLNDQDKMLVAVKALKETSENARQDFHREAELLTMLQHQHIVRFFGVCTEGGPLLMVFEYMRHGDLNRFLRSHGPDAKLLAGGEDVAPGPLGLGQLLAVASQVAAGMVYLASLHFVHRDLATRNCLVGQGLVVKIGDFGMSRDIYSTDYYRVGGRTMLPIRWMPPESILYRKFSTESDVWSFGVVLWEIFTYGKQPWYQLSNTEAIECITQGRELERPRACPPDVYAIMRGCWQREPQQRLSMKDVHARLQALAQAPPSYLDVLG

“Myc-tagged RabGAP5-C (residues 441-749) (from UniProt F1LQU9 454-763)” had an NGF-mediated neurite outgrowth (percentage of differentiated PC12 cells) in experiment [1] of 20%.

B1: 6-His-Rabaptin-5(551-661) (other)
chain: HHHHHHAETRDQVKKLQLMLRQANDQLEKTMKDKQELEDFIKQSSEDSSHQISALVLRAQASEILLEELQQGLSQAKRDVQEQMAVLMQSREQVSEELVRLQKDNDSLQGKHSLHVS
notes: Purified from E. coli BL21(DE3)
As to B1, the binding result with GST-Rabex-5(135-399) is “no binding”.

B2: 6-His-Rabaptin-5(551-862) (other)
chain: HHHHHHAETRDQVKKLQLMLRQANDQLEKTMKDKQELEDFIKQSSEDSSHQISALVLRAQASEILLEELQQGLSQAKRDVQEQMAVLMQSREQVSEELVRLQKDNDSLQGKHSLHVSLQQAEDFILPDTTEALRELVLKYREDIINVRTAADHVEEKLKAEILFLKEQIQAEQCLKENLEETLQLEIENCKEEIASISSLKAELERIKVEKGQLESTLREKSQQLESLQEIKISLEEQLKKETAAKATVEQLMFEEKNKAQRLQTELDVSEQVQRDFVKLSQTLQVQLERIRQADSLERIRAILNDTKLTDINQLPET
Turning to B2, the binding result with GST-Rabex-5(135-399) is “no binding”.
